Laboratory results from patent US5294543.

Molecular target: fibrinogen receptor on platelets (Homo sapiens (Human)) (UniProt P08514)

IC50 of inhibition of platelet aggregation induced by 5 µM ADP: 16 nM
Substance: chrysoptin
